Biological target: the molecule itself
Experiment: crystal structure; crystals from 0.1 M HEPES pH 7.5, 25% wt/v polyethylene glycol 1000; space group P4(1)22; one monomer in the asymmetric unit, tetramer by crystal symmetry

B1: RNase J residues 139–691 (H. pylori strain 26695) with a C-terminal hexa-histidine tag (domain or fragment, Helicobacter pylori strain 26695, UniProt P56185 137-689, looked up)
chain: SKASVKITPLGGLGEIGGNMMVIETPKSAIVIDAGMSFPKEGLFGVDILIPDFSYLHQIKDKIAGIIITHAHEDHIGATPYLFKELQFPLYGTPLSLGLIGSKFDEHGLKKYRSYFKIVEKRCPISVGEFIIEWIHITHSIIDSSALAIQTKAGTIIHTGDFKIDHTPVDNLPTDLYRLAHYGEKGVMLLLSDSTNSHKSGTTPSESTIAPAFDTLFKEAQGRVIMSTFSSNIHRVYQAIQYGIKYNRKIAVIGRSMEKNLDIARELGYIHLPYQSFIEANEVAKYPDNEILIVTTGSQGETMSALYRMATDEHRHISIKPNDLVIISAKAIPGNEASVSAVLNFLIKKEAKVAYQEFDNIHVSGHAAQEEQKLMLRLIKPKFFLPVHGEYNHVARHKQTAISCGVPEKNIYLMEDGDQVEVGPAFIKKVGTIKSGKSYVDNQSNLSIDTSIVQQREEVASAGVFVATIFVNKNKQALLESSQFSSLGLVGFKDEKPLIKEIQGGLEVLLKSSNAEILNNPKKLEDHTRNFIRKALFKKFRKYPAIICHAHSF
notes: the results say 137–691); One monomer in the asymmetric unit; the tetramer (dimer-of-dimers) is generated by crystal symmetry; The CTD (587–691) is poorly ordered in the crystal; also called RNase J 139–691; C1hRSEj; source: E. coli, co-expressed with RhpA 21–465, purified (HiTrap Ni column, HALO resin flow-through, S200 SEC)
- stoichiometry N: 4
